Reference: patent US20100255008A1 (Hoffmann-La Roche, published 2010)
Changes are numbered by the printed parent chain.

T1: human Flag-tagged soluble TWEAK (amino acids 106-249) (human, UniProt O43508 106-249)
T1 construct: the tag is put first here only by convention; also called Human TWEAK; not shown: Flag tag
T1 sequence (looked up): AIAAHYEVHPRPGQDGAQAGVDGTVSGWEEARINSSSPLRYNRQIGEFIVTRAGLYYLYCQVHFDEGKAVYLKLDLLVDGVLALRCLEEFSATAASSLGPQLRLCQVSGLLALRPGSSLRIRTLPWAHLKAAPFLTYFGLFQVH

T2: Biotinylated human soluble TWEAK (human, UniProt O43508 99-249, limits assumed, biotinylated (sites not given))
T2 construct: also called Human TWEAK
T2 sequence (looked up): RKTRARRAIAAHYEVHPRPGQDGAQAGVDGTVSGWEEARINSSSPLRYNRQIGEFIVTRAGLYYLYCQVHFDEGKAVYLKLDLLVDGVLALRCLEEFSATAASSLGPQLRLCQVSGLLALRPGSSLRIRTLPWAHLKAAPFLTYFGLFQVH

T3: Human recombinant soluble TWEAK (human, UniProt O43508 99-249, limits assumed)
T3 sequence (looked up): T2 sequence (looked up)

B1: Antibody 15 (antibody, V domains shown)
VH: QVQLQESGPGLVKPSETLSLTCAVSGYSIRSGYWWSWIRQPPGKGLEWIGQIYNKGNTDNNPALKSRVTISVDTSKNQFSLKLSSVTAADTAVYYCARVFWDDAYFDVWGQGTMVTVSS
VL: EIVLTQSPATLSLSPGERATLSCKASQSVSIGPIHLMHWYQQKPGQAPRLLIYGASNPESGIPARFSGSGSGTDFTLTISSLEPEDFAVYYCQQGKESPRTFGQGTKLEIK
B2: Antibody 19 (antibody, V domains shown)
VH: B1 VH with P41Q, R67Q
VL: B1 VL
B3: Antibody 18 (antibody, V domains shown)
VH: B1 VH with A23T, N61S, A63S
VL: B1 VL
B4: Antibody 23 (antibody, V domains shown)
VH: B1 VH with A23T
VL: B1 VL with A9G, A64D, S81R
B5: Antibody 25 (antibody, V domains shown)
VH: B1 VH with P41Q, R67Q
VL: B1 VL with A9G, A64D, S81R
B6: Antibody 24 (antibody, V domains shown)
VH: B1 VH with A23T, N61S, A63S
VL: B1 VL with A9G, A64D, S81R
B7: Antibody 21 (antibody, V domains shown)
VH: B1 VH
VL: B1 VL with A9G, A64D, S81R
B8: Antibody 20 (antibody, V domains shown)
VH: B1 VH with P41Q, N61S, A63S, R67Q
VL: B1 VL
B9: Antibody 26 (antibody, V domains shown)
VH: B1 VH with P41Q, N61S, A63S, R67Q
VL: B1 VL with A9G, A64D, S81R
B10: Antibody 22 (antibody, V domains shown)
VH: B1 VH with N61S, A63S
VL: B1 VL with A9G, A64D, S81R
B11: Antibody 16 (antibody, V domains shown)
VH: B1 VH with N61S, A63S
VL: B1 VL
B12: Antibody 17 (antibody, V domains shown)
VH: B1 VH with A23T
VL: B1 VL
B13: TW202 (antibody, V domains shown)
VH: QLQLQESGLGLVKPSQSLTLTCSVTGFSITTPDYSWHWIRQLPGQTLEWMGFLYYEGDTYYNPSLKSRISIARDASKNQFFLQLKAVTTEDTATYFCARRKYSGYGNWFAYWGQGTLVTVSL
VL: QPVLTQSPSASASLRASVKLTCTLSSQHSTYYIEWYQQRPDKAPKYVMYLDSDGSHIKGDGIPDRFSGSSSGAHRYLSISNLQPEDEAIYHCGVYDSTAGAVFGSGTQLTVLG
notes: Armenian hamster monoclonal antibody; also called Antibody 202
B14: TW205 (antibody, V domains shown)
VH: B13 VH with L2I, Q3H, L42F, A86S, A98V, L117Q, L122S
VL: B13 VL with S7A, R39H, K45R, L50V, I62V, H74R
notes: Armenian hamster monoclonal antibody; also called Antibody 205
B15: TW212 (antibody)
VL: DIVLTQSPAYLTMSPGQTTTISCKASQSVSIGPIHLMHWYQQKPGQPPRLLIYGASNPESGVPARFSGSGSGTDFTLTIHPVEADDAATYFCQQGKESPRTFGPGTKLEITRADAKPTVSIFPPSSEQLGTGSATLVCFVNNFYPKDINVKWKVDGSEKRDGVLQSVTDQDSKDSTYSLSSTLSLTKADYERHNLYTCEVTHKTSTAAIVKTLNRNEC
VH: QVQLQESGPGLLKPAQSLSLTCTVTGYSIRSGYWWSWIRQQPGKGLEWMGQIYNKGNTDNNPSLKSQITMTVDTSKNQFFLRLRSVTTEDTAVYYCARVFWDDAYFDVWGQGIQVTVSSATTTAPSVYPLAPACDSTTSTTNTVTLGCLVKGYFPEPVTVSWNSGALTSGVHTFPSVLHSGLYSLSSSVTVPSSTWPSQTVTCNVAHPASSTKVDKKIVPGDGSGCKPCTCPGPEVSSVFIFPPKPKDVLTISLSPKVTCVVVDISQDDPEVQFSWFIDGKEVHTAVTQPREEQFNSTYRMVSVLPILHQDWLNGKEFKCKVNSPAFPVPIEKTISKRRGQLQVPQVYTMPPPKEQLTQSQVSLTCMIKGFYPEDIDVAWQKNGQPEQSFKNTPPVLDTDETYFLYSKLDVKKDDWEKGDTFTCSVVHEALHNHHTEKTLSQRPGK
notes: Armenian hamster monoclonal antibody; also called Antibody 212
B16: TW212chi (antibody, human IgG1)
light: DIVLTQSPAYLTMSPGQTTTISCKASQSVSIGPIHLMHWYQQKPGQPPRLLIYGASNPESGVPARFSGSGSGTDFTLTIHPVEADDAATYFCQQGKESPRTFGPGTKLEITRTVAAPSVFIFPPSDEQLKSGTASVVCLLNNFYPREAKVQWKVDNALQSGNSQESVTEQDSKDSTYSLSSTLTLSKADYEKHKVYACEVTHQGLSSPVTKSFNRGEC
heavy: not shown

Each binder was assayed against T1, human Flag-tagged soluble TWEAK (amino …) (assay: receptor interaction ELISA: antibody pre-incubated with human Flag-tagged soluble TWEAK, binding to coated human Fn14:Fc).
Experimental: Blocking of human TWEAK/human Fn14 interaction was shown by receptor interaction ELISA. 96-well Maxisorp® plates (Nunc) were coated with 100 μl 1 μg/ml human Fn14:Fc (extracellular domain of human Fn14 (amino acids 1-75) fused to Fc portion of human IgG1) in PBS per well for 1.5 h at room temperature and blocked with a solution of 5% FBS in PBS for 30 minutes at room temperature under shaking. […] Wells were filled with 100 μl of anti-FLAG-HRP detection antibody, diluted 1:5000 in blocking buffer, and incubated for 1 h at room temperature. After four more wash steps, the signal was developed by addition of 100 μl 3,3,5,5-Tetramethylbenzidine (TMB) solution for approximately ten minutes. The reaction was stopped by adding 100 μl of 1 N HCl, and absorbance measured at 450 nm (reference wavelength 620 nm).

IC50 | Binder
0.014 µg/mL | B1
0.015 µg/mL | B2
0.016 µg/mL | B3
0.013 µg/mL | B4
0.042 µg/mL | B5
0.02 µg/mL | B6
0.012 µg/mL | B7
0.035 µg/mL | B8
0.094 µg/mL | B9
0.017 µg/mL | B10
0.022 µg/mL | B11
0.014 µg/mL | B12
0.0092 µg/mL | B13
0.0088 µg/mL | B14
0.0151 µg/mL | B15
0.0134 µg/mL | B16

Each binder was assayed against T2, Biotinylated human soluble TWEAK (assay: Biacore SPR, biotinylated human soluble TWEAK on streptavidin sensor, antibody 100 nM as analyte, 25° C.).
Experimental: A Biacore 2000 instrument was used with a Biacore streptavidin coated sensor mounted into the system. The system buffer HBS-ET (10 mM HEPES pH 7.4, 150 mM NaCl, 1 mM EDTA, 0.05% Tween® 20) was used at a flow rate of 100 μl/min. The sample buffer was the system buffer. Biotinylated human soluble TWEAK and biotinylated murine soluble TWEAK was immobilized on different flow cells on the SA sensor at 150 RU each. The flow cell FC1 was used as a blank reference cell. Each antibody was injected into the system as an analyte at 100 nM at 100 μl/min for 2 min association time. The dissociation of the immunecomplexes were monitored for 5 min. The sensor surface was washed with HBS-ET for 10 seconds and regenerated using 2×2 minutes injections with 10 mM glycine pH 2.25. This procedure was done at 25° C. The kinetically rate limiting step of the complex dissociation phase in the interval [240 s-300 s] was taken to calculate the dissociation rate kd [1/s] (Biacore Evaluation Software 4.0). According to the equation t1/2 diss=ln(2)/(60×kd), the half-life of each immunocomplexe in minutes was calculated.

t/2 diss. [min] 25° C. | t/2 diss [min] 25° C. | Binder
18 min |  | B1
17 min |  | B2
16 min |  | B3
17 min |  | B4
17 min |  | B5
15 min |  | B6
17 min |  | B7
15 min |  | B8
16 min |  | B9
14 min |  | B10
15 min |  | B11
18 min |  | B12
 | 53 min | B13
 | 30 min | B14
 | 20 min | B15
 | 13 min | B16

What follows are binders tested against T3, Human recombinant soluble TWEAK (assay: cell-based or functional assay).

IL-8 Secretion IC50 | Binder
0.141 µg/mL | B1
0.253 µg/mL | B2
0.189 µg/mL | B3
0.242 µg/mL | B4
0.475 µg/mL | B5
0.165 µg/mL | B6
0.224 µg/mL | B7
0.401 µg/mL | B8
0.222 µg/mL | B9
0.249 µg/mL | B10
0.163 µg/mL | B11
0.146 µg/mL | B12
0.146 µg/mL | B13
0.151 µg/mL | B14
0.112 µg/mL | B15
